Data from publication PMC6953809.

Assays:
[1] = biological target: EGFP-rGR as used in the number and brightness assay (Fig 7) and in the ccN&B with alternative ligands (Fig 9) (rat) (UniProt P06536); assay: cross-correlation number and brightness assay (ccN&B); living 3617 cells +tetracycline, transiently transfected, nuclear Bcc relative to 100 nM corticosterone (100%); 100 nM of alternative ligands (cortisol, prednisolone, dexamethasone, aldosterone) or dexamethasone 10 nM + aldosterone 10 nM, aldosterone 10 nM + RU486 1 μM, corticosterone 10 nM + RU486 1 μM
[2] = biological target: EGFP-rGR as used in the number and brightness assay (Fig 7) and in the ccN&B with alternative ligands (Fig 9) (rat) (UniProt P06536); assay: number and brightness assay (N&B); living 3617 cells, transiently transfected, nucleoplasm, 100 nM corticosterone; average molecular brightness (ε) in one channel with different co-expressed partners

Bcc value with 100 nM cortisol, percent of the Bcc value with corticosterone [1] [%] | Bcc value with 100 nM prednisolone, percent of the Bcc value with corticosterone [1] [%] | average molecular brightness (ε) of EGFP-rGR paired with mCherry-rGR, percent of the +mCherry reference [2] [%] | stoichiometry N [2] | Substance
70 | 60 | – | – | mCherry-tagged rat mineralocorticoid receptor, transiently expressed in 3617 cells (from UniProt P22199 1-981)
– | – | 63.3 | 2 | EGFP-rGR as used in the number and brightness assay (Fig 7) and in the ccN&B with alternative ligands (Fig 9) (from UniProt P06536 1-795) (receptor)
